Numbering of substitutions follows the chain as printed. Numbers in names are those of the source.

Drawing on PMC7133768, this text covers Km, kcat and kcat/Km for 4 proteins.

Common to all, as to assay: oxygen consumption assay
Common to all, as to format: biochemical, Chloracidobacterium thermophilum

Substrate in data set [1]: C[N+](C)(C)[C@@H](Cc1cnc[nH]1)C(=O)[O-]
As to conditions: co-substrate L-Cys.

Substrate in data set [2]: N[C@@H](CS)C(=O)O
As to conditions: co-substrate hercynine.

Substrate in data set [3]: N[C@@H](CCC(=O)N[C@@H](CS)C(=O)O)C(=O)O
As to conditions: co-substrate hercynine.

B1: EgtBCth (Cabther_A1318) (Chloracidobacterium thermophilum B; A420Y/D52L) (protein)
chain: EAARSHPEPIQSGEVSDRKAWQRHYRAVRAVSEAICQPLETEDYVVQPMPLVSPPKWHLGHTSWFFETFILKSGLADYRPFHPRYDYIFNSYYEAVGARHPRPQRGLLTRPTVSEVYAYRAHVDAAVERFIAHSDTRTWAALQPILELGLHHEQQHQELLLTDIKAILATNPLDPVYRPQPQPLPSPVEQLSPTGDWHIVEGGRYAIGHAGRGFAFDNEGPRHDVLLRPCRIAARPVTNGEFLAFMADGGYRRPELWLSDGWAAVTARGWEAPLYWRQAADGTWETLTLHGVQPVAPYEPVCHISFYEADAYARWAGKRLPTEAEWEVVAARLPVTGNFYESGVLHPRPVSVSAAFYGDVWVWTASPYVGYPGFRPVSGALGEYNGKFMCNQMVLRGGSCATSLTHIRSTYRNFFPPDYRWQFTGVRLAEDMS
B1: in the data set “oxygen consumption assay [1]”, the Km worked out at 23.3 ± 1.2 µM, the kcat was 0.545 ± 0.005 s⁻¹ and the kcat/Km came to 23300 ± 1170 M⁻¹ s⁻¹. For the same protein, in the data set “oxygen consumption assay [2]”, the Michaelis-Menten constant (Km) was 48.7 ± 3.5 µM, the kcat is 0.545 ± 0.005 s⁻¹ and the kcat/Km came out at 11200 ± 667 M⁻¹ s⁻¹.

B2: EgtBCth (Cabther_A1318) (Chloracidobacterium thermophilum B; D52L) (protein)
chain: B1 chain with Y419A
Consider B2, for which the Km in the data set “oxygen consumption assay [1]” turned out to be 13.2 ± 1.3 µM; in “oxygen consumption assay [2]”, 47.3 ± 2.4 µM.

B3: EgtBCth (Cabther_A1318) (Chloracidobacterium thermophilum B; A420Y) (protein)
chain: B1 chain with L51D
Turning to B3, in the data set “oxygen consumption assay [1]”, the Km turned out to be 39.2 ± 1.6 µM and the kcat/Km was 11700 ± 500 M⁻¹ s⁻¹. In “oxygen consumption assay [2]”, the Km amounted to 28.1 ± 1.8 µM and the specificity constant (kcat/Km) worked out at 16300 ± 1000 M⁻¹ s⁻¹.

B4: EgtBCth (Cabther_A1318) (Chloracidobacterium thermophilum B) (protein)
chain: B1 chain with L51D, Y419A
As for B4, the Km in the data set “oxygen consumption assay [1]” (Fe(II) enzyme) was 87.7 ± 7.6 µM; in the data set “oxygen consumption assay [2]” it was 205 ± 18 µM. Further, the catalytic efficiency (kcat/Km) turned out to be 50 ± 8.33 M⁻¹ s⁻¹ in the data set “oxygen consumption assay [3]” and 2170 ± 167 M⁻¹ s⁻¹ in “oxygen consumption assay [2]”.
